From IntAct's records for PubMed 15302918

B1: Juxtaposed with another zinc finger protein 1 (Homo sapiens), Q86VZ6 (parent)
chain: MTGIAAASFFSNTCRFGGCGLHFPTLADLIEHIEDNHIDTDPRVLEKQELQQPTYVALSYINRFMTDAARREQESLKKKIQPKLSLTLSSSVSRGNVSTPPRHSSGSLTPPVTPPITPSSSFRSSTPTGSEYDEEEVDYEESDSDESWTTESAISSEAILSSMCMNGGEEKPFACPVPGCKKRYKNVNGIKYHAKNGHRTQIRVRKPFKCRCGKSYKTAQGLRHHTINFHPPVSAEIIRKMQQ
partner: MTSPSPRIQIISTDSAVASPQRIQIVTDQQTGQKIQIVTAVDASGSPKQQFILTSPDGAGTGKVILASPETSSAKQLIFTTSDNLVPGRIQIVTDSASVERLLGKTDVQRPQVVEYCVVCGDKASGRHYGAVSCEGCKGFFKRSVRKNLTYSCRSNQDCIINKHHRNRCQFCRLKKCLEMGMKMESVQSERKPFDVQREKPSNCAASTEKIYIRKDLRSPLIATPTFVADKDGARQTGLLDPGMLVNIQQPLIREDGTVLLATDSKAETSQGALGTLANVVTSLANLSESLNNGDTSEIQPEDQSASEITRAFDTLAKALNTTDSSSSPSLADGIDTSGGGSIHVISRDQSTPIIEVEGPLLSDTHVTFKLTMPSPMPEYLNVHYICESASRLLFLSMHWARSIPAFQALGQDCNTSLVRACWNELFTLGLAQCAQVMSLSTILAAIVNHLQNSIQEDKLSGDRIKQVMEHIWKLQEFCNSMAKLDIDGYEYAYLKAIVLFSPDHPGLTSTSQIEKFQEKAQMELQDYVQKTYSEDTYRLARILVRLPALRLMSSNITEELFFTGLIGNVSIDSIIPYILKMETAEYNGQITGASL
B2: Nuclear receptor subfamily 2 group C member 2 (Homo sapiens), P49116 (parent)
chain: B1 partner
partner: B1 chain

Variants of: B1
Conditions: with nr2c2_human NR2C2, P49116

Variant	effect of a mutation on the interaction
MTGIAAASFFSNTCRFGGCGLHFPTLADLIEHIEDNHIDTDPRVLEKQELQQPTYVALSDINRFMTDAARREQESLKKKIQPKLSLTLSSSVSRGNVSTPPRHSSGSLTPPVTPPITPSSSFRSSTPTGSEYDEEEVDYEESDSDESWTTESAISSEAILSSMCMNGGEEKPFACPVPGCKKRYKNVNGIKYHAKNGHRTQIRVRKPFKCRCGKSYKTAQGLRHHTINFHPPVSAEIIRKMQQ [Y60D]	disrupting interaction strength
MTGIAAASFFSNTCRFGGCGLHFPTLADLIEHIEDNHIDTDPRVLEKQELQQPTYVALSYINRFMTDAPRREQESLKKKIQPKLSLTLSSSVSRGNVSTPPRHSSGSLTPPVTPPITPSSSFRSSTPTGSEYDEEEVDYEESDSDESWTTESAISSEAILSSMCMNGGEEKPFACPVPGCKKRYKNVNGIKYHAKNGHRTQIRVRKPFKCRCGKSYKTAQGLRHHTINFHPPVSAEIIRKMQQ [A69P]	with no effect
MTGIAAASFFSNTCRFGGCGLHFPTLADLIEHIEDNHIDTDPRVLEKQELQQPTYVALSYINRFMTDAARREQESPKKKIQPKLSLTLSSSVSRGNVSTPPRHSSGSLTPPVTPPITPSSSFRSSTPTGSEYDEEEVDYEESDSDESWTTESAISSEAILSSMCMNGGEEKPFACPVPGCKKRYKNVNGIKYHAKNGHRTQIRVRKPFKCRCGKSYKTAQGLRHHTINFHPPVSAEIIRKMQQ [L76P]	decreasing interaction strength
MTGIAAASFFSNTCRFGGCGLHFPTLADLIEHIEDNHIDTDPRVLEPQELQQPTYVALSYINRFMTDAARREQESLKKKIQPKLSLTLSSSVSRGNVSTPPRHSSGSLTPPVTPPITPSSSFRSSTPTGSEYDEEEVDYEESDSDESWTTESAISSEAILSSMCMNGGEEKPFACPVPGCKKRYKNVNGIKYHAKNGHRTQIRVRKPFKCRCGKSYKTAQGLRHHTINFHPPVSAEIIRKMQQ [K47P]	with no effect

Variants of: B2
Conditions: with jazf1_human JAZF1, Q86VZ6

Variant	effect of a mutation on the interaction
MTSPSPRIQIISTDSAVASPQRIQIVTDQQTGQKIQIVTAVDASGSPKQQFILTSPDGAGTGKVILASPETSSAKQLIFTTSDNLVPGRIQIVTDSASVERLLGKTDVQRPQVVEYCVVCGDKASGRHYGAVSCEGCKGFFKRSVRKNLTYSCRSNQDCIINKHHRNRCQFCRLKKCLEMGMKMESVQSERKPFDVQREKPSNCAASTEKIYIRKDLRSPLIATPTFVADKDGARQTGLLDPGMLVNIQQPLIREDGTVLLATDSKAETSQGALGTLANVVTSLANLSESLNNGDTSEIQPEDQSASEITRAFDTLAKALNTTDSSSSPSLADGIDTSGGGSIHVISRDQSTPIIEVEGPLLSDTHVTFKLTMPSPMPEYLNVHYICESASRLLFLSMHWARSIPAFQALGQDCNTSLVRACWNELFTLGLAQCAQVMSLSTILAAIVNHLQNSIQEDKLSGDRIKQVMEHIWKLQEFCNSMAKLDIDGYEYAYLKAIVLFSPDHPGLTSTSQIEKFQEKAQMELQDYVQKTYSEDTYRLARILVRLPALRLMSSNITEELFFTGLIGNVSIDSINPYILKMETAEYNGQITGASL [I576N]	decreasing interaction strength
